Data reported in patent publication CN117603356A (HAIBO HUAJIAN HUZHOU PHARMACEUTICAL TECH CO LTD, dated 2024).

B1: PI-21-hFc (Fc fusion)
chain: QVKLVQSGGGLVQPGGSLRLSCAASGFTFENYAMGWLRQAPGEGLEWVSSINYNGDVTAYTTSVKGRFTVSRDNAKNTLYLQLNDLKIDDTAMYYCAKGRYGWALSREDYNTRGQGTQVTVSS
notes: VHH inserted into the pFCIG-hIgG1 plasmid, expressed in HEK293F; also called 单克隆PI-21-hFc; not shown: human IgG1 Fc fragment (hFC) from the bought expression plasmid pFCIG-hIgG1
B2: PI-74-hFc (Fc fusion)
chain: EVKLVESGGGSVQAGGSLRLSCTASGPTYGRTCMGWFRQAPGREREGVATIETKGLTRYTYYADSVKGRFTISQDDAKNTLYLQMNSLKPEDTAMYYCAADGPGCSGGAFIARGRWYPHWGQGTQVTVSS
notes: VHH inserted into the pFCIG-hIgG1 plasmid, expressed in HEK293F; also called 单克隆PI-74-hFc; not shown: human IgG1 Fc fragment (hFC) from the bought expression plasmid pFCIG-hIgG1
B3: PI-28-hFc (Fc fusion)
chain: EVKLVESGGGSVQAGGSLRLSCAASGYTYSSACMGWFRQAPGKERDWVALIDGIGSTTYTDSVKGRFTISQDNAKNTLYLQMNSLKPEDTATYYCAADLLSGGYCHPVGGGARDWGGPVVADFTYWGQGTQVTVSS
notes: VHH inserted into the pFCIG-hIgG1 plasmid, expressed in HEK293F; also called 单克隆PI-28-hFc; not shown: human IgG1 Fc fragment (hFC) from the bought expression plasmid pFCIG-hIgG1
B4: PI-19-hFc (Fc fusion)
chain: EVQLVESGGGSVQAGGSLRLSCAASGITISNNCMGWFRQAPGKEREGVALLYSTSSTSSQKSHADSVKGRFTISRDNAKNTVYLQMNSLKPEDSAMYYCAAKSGVCRWNWEYGMDYWDWGKGTLVTISS
notes: VHH inserted into the pFCIG-hIgG1 plasmid, expressed in HEK293F; also called 单克隆PI-19-hFc; not shown: human IgG1 Fc fragment (hFC) from the bought expression plasmid pFCIG-hIgG1

Target: T1, Human-pIgR-ECD-his抗原重组蛋白 (human, UniProt P01833 19-638)
T1 construct: extracellular domain; Recombinant antigen coated on the ELISA plate (200 ng/well); also called PI蛋白; not shown: his tag
Experiment: ELISA, antigen coated, anti-human IgG Fc HRP

T1 sequence (P01833 19-638): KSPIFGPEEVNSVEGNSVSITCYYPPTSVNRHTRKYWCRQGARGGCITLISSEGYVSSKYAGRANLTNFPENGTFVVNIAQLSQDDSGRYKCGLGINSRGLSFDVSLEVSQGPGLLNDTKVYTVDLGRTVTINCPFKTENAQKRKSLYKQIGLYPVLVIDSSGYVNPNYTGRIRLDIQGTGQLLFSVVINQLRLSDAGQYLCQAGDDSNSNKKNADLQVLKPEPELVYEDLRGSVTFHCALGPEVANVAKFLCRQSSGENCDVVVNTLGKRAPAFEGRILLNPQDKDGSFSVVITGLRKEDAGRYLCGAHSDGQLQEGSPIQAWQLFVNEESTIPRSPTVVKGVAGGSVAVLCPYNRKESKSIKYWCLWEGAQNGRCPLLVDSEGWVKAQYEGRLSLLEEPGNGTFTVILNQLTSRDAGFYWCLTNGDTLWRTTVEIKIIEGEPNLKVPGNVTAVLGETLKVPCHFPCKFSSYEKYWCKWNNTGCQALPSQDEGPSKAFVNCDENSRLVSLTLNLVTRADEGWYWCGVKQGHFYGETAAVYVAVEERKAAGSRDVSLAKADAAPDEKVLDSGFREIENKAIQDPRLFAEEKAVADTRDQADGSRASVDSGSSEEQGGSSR

Binding result, binds:
B1
B2
B3
B4
